The target of experiment [1] is T1, recombinant human HGF (R&D Systems, Catalog No. 294-HGN-025) (human, UniProt P14210 32-728).
T1 construct: Mature HGF is a disulfide-linked heterodimer of alpha and beta chain cut from one precursor; also called rhHGF (R&D Systems); rhHGF
The experiment in a line: SPR, captured antibody, HGF injected, 25 C. Background: SPR reads the build-up and loss of mass on a sensor chip optically.

The target in experiment [2] is T1, recombinant human HGF (R&D Systems, …). The experiment is described as follows: cell-based or functional assay.
Experiment [3] has as its target T2, recombinant mouse HGF (R&D Systems) (mouse, UniProt Q08048 33-728).
T2 construct: Bought protein, construct not described; also called rmHGF (R&D Systems); murine HGF
The experiment is described as follows: SPR, antibody immobilized, HGF protein injected, 25 C. How it is done:
(§1) Analyses were performed at 25° C. using PBS (GIBCO, Catalog No. 14040-133) containing 0.05% surfactant P20 (BIAcore, Catalog No. R-1000-54), 2 mg/mL BSA (EMD, Catalog No. 2930) and 10 mg/mL CM-Dextran Sodium salt (Fluka, Catalog No. 86524) as running buffer. […] The resulting binding was determined as resonance units (RU) over baseline 30 seconds after the end of injection. […] Non-specific binding was monitored by comparing binding to a control surface.

Experiment [4] has as its target T3, recombinant mhm chimeric HGF protein containing the region I499-R556 of hHGF disposed between murine sequences (mouse-human-mouse chimera, UniProt Q08048 56-728).
T3 construct: also called mhm chimera (I499-R556)
T3 chain: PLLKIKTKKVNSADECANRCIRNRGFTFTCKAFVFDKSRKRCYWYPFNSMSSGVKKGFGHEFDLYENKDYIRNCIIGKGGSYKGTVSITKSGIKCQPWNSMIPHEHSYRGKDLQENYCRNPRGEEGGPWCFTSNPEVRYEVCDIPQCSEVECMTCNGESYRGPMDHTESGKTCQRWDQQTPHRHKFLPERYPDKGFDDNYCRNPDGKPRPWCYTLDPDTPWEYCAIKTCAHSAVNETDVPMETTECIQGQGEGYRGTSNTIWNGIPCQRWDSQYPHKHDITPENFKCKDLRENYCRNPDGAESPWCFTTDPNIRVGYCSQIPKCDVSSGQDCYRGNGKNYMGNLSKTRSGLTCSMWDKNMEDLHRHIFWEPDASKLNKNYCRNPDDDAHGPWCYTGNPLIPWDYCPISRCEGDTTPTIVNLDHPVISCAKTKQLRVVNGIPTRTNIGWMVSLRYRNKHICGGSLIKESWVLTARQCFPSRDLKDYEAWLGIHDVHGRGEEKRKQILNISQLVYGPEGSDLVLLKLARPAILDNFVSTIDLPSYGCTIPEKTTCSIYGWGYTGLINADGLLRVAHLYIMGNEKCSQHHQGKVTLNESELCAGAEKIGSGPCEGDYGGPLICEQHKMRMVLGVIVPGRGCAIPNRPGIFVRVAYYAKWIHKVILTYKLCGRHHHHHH
The experiment is described as above. The protocol: as §1

For experiment [5], the target named is T4, recombinant mhm chimeric HGF protein containing human W507-L585 HGF sequence disposed within mouse HGF … (mouse-human-mouse chimera, UniProt Q08048 56-728).
T4 construct: CHO supernatant; also called mhm chimera (W507-L585); MHM chimera (507-585)
T4 chain: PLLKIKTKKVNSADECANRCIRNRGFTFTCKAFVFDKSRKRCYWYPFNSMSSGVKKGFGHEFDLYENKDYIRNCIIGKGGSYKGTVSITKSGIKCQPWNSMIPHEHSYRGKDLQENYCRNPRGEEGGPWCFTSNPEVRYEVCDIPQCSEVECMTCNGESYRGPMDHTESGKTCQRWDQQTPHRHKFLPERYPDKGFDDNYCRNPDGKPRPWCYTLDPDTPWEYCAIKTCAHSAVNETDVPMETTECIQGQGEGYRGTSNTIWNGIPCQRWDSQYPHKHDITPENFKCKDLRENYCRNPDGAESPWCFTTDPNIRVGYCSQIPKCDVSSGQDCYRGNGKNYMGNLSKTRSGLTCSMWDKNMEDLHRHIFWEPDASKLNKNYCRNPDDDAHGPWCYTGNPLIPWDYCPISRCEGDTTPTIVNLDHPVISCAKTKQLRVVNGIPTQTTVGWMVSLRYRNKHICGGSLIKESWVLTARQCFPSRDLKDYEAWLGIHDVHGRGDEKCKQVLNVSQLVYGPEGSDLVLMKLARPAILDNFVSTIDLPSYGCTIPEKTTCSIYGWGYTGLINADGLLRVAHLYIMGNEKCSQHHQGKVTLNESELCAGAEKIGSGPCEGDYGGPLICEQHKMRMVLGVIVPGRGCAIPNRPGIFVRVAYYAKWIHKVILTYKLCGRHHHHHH
The experiment is described as above. The protocol: as §1

The values below come from patent publication US20140178935A1 (AVEO PHARMACEUTICALS, published 2014).

T1 sequence (P14210 32-728 limits assumed): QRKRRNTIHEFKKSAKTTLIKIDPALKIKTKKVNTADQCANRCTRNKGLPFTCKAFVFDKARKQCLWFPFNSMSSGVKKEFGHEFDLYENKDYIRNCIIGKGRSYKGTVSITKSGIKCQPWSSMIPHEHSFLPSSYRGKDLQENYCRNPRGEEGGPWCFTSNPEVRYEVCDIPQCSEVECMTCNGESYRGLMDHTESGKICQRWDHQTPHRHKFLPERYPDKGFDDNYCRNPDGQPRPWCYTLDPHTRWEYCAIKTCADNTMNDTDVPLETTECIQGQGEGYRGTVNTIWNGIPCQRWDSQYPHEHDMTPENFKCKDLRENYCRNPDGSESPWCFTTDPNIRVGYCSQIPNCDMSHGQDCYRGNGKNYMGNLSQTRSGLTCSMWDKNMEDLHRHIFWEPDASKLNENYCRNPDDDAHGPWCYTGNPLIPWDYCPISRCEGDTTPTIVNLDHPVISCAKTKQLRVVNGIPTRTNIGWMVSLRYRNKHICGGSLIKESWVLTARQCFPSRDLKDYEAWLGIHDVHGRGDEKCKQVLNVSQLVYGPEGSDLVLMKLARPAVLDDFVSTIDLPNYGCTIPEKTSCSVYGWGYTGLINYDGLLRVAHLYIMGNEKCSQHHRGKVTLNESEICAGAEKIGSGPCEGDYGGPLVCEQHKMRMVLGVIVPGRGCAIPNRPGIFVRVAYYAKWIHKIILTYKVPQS
T2 sequence (Q08048 33-728 limits assumed): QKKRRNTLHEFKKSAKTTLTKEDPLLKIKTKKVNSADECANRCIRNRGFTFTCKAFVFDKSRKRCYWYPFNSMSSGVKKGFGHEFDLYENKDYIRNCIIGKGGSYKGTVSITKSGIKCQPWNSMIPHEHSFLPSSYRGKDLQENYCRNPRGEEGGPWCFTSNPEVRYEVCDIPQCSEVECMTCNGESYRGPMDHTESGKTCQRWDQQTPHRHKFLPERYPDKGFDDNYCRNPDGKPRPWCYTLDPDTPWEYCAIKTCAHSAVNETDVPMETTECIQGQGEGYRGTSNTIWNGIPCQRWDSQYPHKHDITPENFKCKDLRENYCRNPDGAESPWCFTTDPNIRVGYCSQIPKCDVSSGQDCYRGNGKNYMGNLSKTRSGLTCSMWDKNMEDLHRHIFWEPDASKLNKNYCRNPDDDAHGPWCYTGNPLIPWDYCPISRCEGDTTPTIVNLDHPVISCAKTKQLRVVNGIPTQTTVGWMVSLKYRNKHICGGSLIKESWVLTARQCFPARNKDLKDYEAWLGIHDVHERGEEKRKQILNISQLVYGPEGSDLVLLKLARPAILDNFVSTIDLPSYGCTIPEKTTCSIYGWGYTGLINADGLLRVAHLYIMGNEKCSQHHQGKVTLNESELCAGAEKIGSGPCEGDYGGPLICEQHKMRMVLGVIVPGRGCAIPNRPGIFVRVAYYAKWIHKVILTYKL

B1: HE2B8-4 (LRMR2B8HC + IgG1 constant region G1m(3) allotype allele 1, plus LRMR2B8LC + Kappa constant region Km(3) allotype allele 1) (antibody, V domains shown)
VH: QVQLVQPGAEVKKPGTSVKLSCKASGYTFTTYWMHWVRQAPGQGLEWIGEINPTNGHTNYNQKFQGRATLTVDKSTSTAYMELSSLRSEDTAVYYCARNYVGSIFDYWGQGTLLTVSS
VL: DIVMTQSPDSLAMSLGERVTLNCKASENVVSYVSWYQQKPGQSPKLLIYGASNRESGVPDRFSGSGSATDFTLTISSVQAEDVADYHCGQSYNYPYTFGQGTKLEIKR
notes: Human Engineered 2B8 variant, human IgG1 kappa, made in HEK293E cells
As to B1, in experiment [1], the equilibrium dissociation constant (Kd) (as a rule, the free concentration of one partner at which half of the binding sites on the other are occupied at equilibrium, for simple one-to-one binding) stood at 0.0065 nM; the koff (as a rule, the rate constant with which the complex falls apart) was determined as 1.1e-05 s⁻¹; the kon (usually the second-order rate constant of association) worked out at 1.7e+06 M⁻¹ s⁻¹. For the same molecule, the “EC50, inhibition of HGF-stimulated c-Met phosphorylation in PC-3 cells, Average of Two Trials” value in experiment [2] was 0.75 nM. Also, in experiment [3], the binding result is recorded as “no binding”. Moreover, the binding result in experiment [4] is on record as “binds”. The binding result in experiment [5] is recorded as “binds”.

B2: anti-hHGF monoclonal antibody 2B8 (antibody, mouse IgG1, kappa)
heavy: QVQLQQPGAELVKPGTSVKLSCKASGYTFTTYWMHWVNQRPGQGLEWIGEINPTNGHTNYNEKFKSKATLTVDKSSSTAYMQLSSLTSEDSAVYYCARNYVGSIFDYWGQGTTLTVSSAKTTPPSVYPLAPGSAAQTNSMVTLGCLVKGYFPEPVTVTWNSGSLSSGVHTFPAVLQSDLYTLSSSVTVPSSTWPSETVTCNVAHPASSTKVDKKIVPRDCGCKPCICTVPEVSSVFIFPPKPKDVLTITLTPKVTCVVVDISKDDPEVQFSWFVDDVEVHTAQTQPREEQFNSTFRSVSELPIMHQDWLNGKEFKCRVNSAAFPAPIEKTISKTKGRPKAPQVYTIPPPKEQMAKDKVSLTCMITDFFPEDITVEWQWNGQPAENYKNTQPIMDTDGSYFVYSKLNVQKSNWEAGNTFTCSVLHEGLHNHHTEKSLSHSPGK
light: NIVMTQSPKSMSMSVGERVTLSCKASENVVSYVSWYQQKPAQSPKLLIYGASNRNTGVPDRFTGSGSATDFTLTISSVRAEDLADYHCGQSYNYPYTFGGGTRLEIKRADAAPTVSIFPPSSEQLTSGGASVVCFLNNFYPKDINVKWKIDGSERQNGVLNSWTDQDSKDSTYSMSSTLTLTKDEYERHNSYTCEATHKTSTSPIVKSFNRNEC
notes: Murine IgG1 kappa from hybridoma; also called murine 2B8; mouse 2B8
For the molecule B2, the dissociation constant (Kd) in experiment [1] stood at 0.0073 nM. In experiment [1], the koff is 1e-05 s⁻¹. Besides, the kon in experiment [1] was 1.4e+06 M⁻¹ s⁻¹. For the same molecule, the “EC50, inhibition of HGF-stimulated c-Met phosphorylation in PC-3 cells, Average of Two Trials” value in experiment [2] turned out to be 0.91 nM. The binding result in experiment [3] was “no binding”; in experiment [4] it was “binds”; in experiment [5] it was “binds”.
